Reference: patent US20230242673A1

Target: LDLR expressed in HepG2 cells (UniProt P01130)
Test: cell-based or functional assay

Chain of LDLR expressed in HepG2 cells (P01130 22-860 limits assumed): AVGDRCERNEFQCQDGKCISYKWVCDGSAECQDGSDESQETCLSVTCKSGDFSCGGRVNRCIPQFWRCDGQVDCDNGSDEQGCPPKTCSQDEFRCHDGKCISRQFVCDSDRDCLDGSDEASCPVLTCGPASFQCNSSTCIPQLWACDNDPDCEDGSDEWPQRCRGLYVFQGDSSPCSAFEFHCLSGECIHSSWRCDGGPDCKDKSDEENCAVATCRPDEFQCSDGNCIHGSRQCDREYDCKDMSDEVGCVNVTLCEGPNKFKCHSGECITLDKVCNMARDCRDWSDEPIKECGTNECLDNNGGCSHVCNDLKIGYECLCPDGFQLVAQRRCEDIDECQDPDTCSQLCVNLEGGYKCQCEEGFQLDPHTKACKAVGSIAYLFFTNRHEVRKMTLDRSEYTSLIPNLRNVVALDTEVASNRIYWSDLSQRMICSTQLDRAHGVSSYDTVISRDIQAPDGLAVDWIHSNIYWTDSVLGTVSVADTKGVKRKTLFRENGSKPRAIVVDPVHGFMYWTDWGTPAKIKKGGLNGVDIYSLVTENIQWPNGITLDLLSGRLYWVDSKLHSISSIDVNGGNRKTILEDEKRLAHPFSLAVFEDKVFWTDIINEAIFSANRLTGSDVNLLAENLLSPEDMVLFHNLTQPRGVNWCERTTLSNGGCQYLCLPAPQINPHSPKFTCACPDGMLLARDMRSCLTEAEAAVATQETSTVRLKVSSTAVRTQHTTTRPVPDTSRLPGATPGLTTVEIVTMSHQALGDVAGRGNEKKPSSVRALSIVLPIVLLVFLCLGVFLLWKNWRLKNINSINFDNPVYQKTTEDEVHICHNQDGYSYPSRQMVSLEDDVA

LDL uptake by HepG2 cells, fluorescence value of LDL BODIPY (485 Ex/535 Em): 80
Substance: PCSK9 Ag (human PCSK9 protein, Acro Cat No: PC9-H5223) (from UniProt Q8NBP7 31-692)
